The values below come from the domain aggregation screens of Martell et al. (2025).

The series is described as follows: soluble fraction after stress (log2 fold change); higher = more stays soluble; pooled small domains, quantitative proteomics. Conditions: stress: 50 degC. Put shortly:
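After stress at 50°C, the amount of each protein still soluble was measured. This was done on pooled custom libraries of small protein domains, using high-throughput quantitative proteomics. The figure given is a base-two log fold change and stands for aggregation propensity, with higher values meaning more protein stays in solution.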
Turning to “HMQNLETVEEIKELALNYLDKYQPSKKSLQVYLFRKAIDAQSNSVEKSEILKKIETVLTDLEEQGILNDAL”, the “soluble fraction (log2)” value came out at 0.0664.
With “HMNQIDDADRKRVVDEVAGQFSSMSLTEMRSDREKLLSRIIPQVQTTLNRLGLQTIDVEGIAREVIARVG” the figure was 0.159.
Under “HMDRYAVRAEELAAALAQYHRHVGVYPENLEDLIAPTGPRGYRGPYLSELPTNPSTSKPDWGYDPATGRVS” stands 0.198; under “HMKAPDSQYKPLTDFQTDASFQKLDAYLRNRYPAMLANAVVYDVLRTPDAISYRVNYQVDNKMITINAAVT”, -0.126; under “HMPTPRVPMSKQRQILQLLQDGHLSTREIAAALHISKTSVGDIAKAARLAGLDWEAASKLSDEELSARIYK”, -0.00175.
“HMENPLETYYSQWVSAIKREHPEASFVKDTDGKYYVEGLTKNRLAVIYENPHLVRLVNATTNLHVE”: the “soluble fraction (log2)” value is -0.305.
With “HMEQVVFNGTGRRKSSIARVRIMSGKGNITVNGKALDEYFGEETLKVIVRQPLTVTDTLDKYDVIATVK” the figure was 0.203; with “HMLAVEKIEFVGNERIAAADLESALSALYDRPMTTISDDEIAKLLSGFSLIETFTSQAEPPHTLRVNIRE”, -0.141.
Under “HMKRVVFFNGISWYHRTKELLDDMTTKYGKKGGFATPEEAEKSYWEYEERYKDRQRELQVAYLKN” stands -0.648; under “HMLMLTPGQVSNSLNVSTATVRRWSARFARHLSPQPPNRKRSYTPDDLATLARVRDLSASGTSLAQIDIAL”, -2.51; under “HMGGKTAVVTGSLVNVRKGPGTGNALVGQVARGDELPVLGQDGDWYQIKLANGSNGWVAGWLVSLKDAVP”, 0.432.
With “HMETSIQFIRLEIGHNHPWVNQTLKEIPTIPGTLIAAVLRGDEDQAIIPKGDTLLKEGDSVIIGAKEYQD” the figure was -0.919; with “HMLSNKIEQLRKEKGYTFAKLSELSGISTGRLSDLATGKRNNPTMDTLIKLADALDVTLDELVGR”, 0.14.
Consider “HMNTKDRIKQLAAQRKITIAELERKLHIANGTIGKWDKQNPSIEPLKKLADYFGVTTDYLLGRT”, for which the “soluble fraction (log2)” value stood at 0.162.
Under “HMSETQDQTTIEIEDMITVGTLAERLSIPVSTLIGELMKNGVMATVNEKIDFDTAQIIVGELKLPIELSKK” stands 0.201.
With “HMLLFNPGEVLKGFVLQSGTNNRVLLQIGDSRVIADTQTPLKAGEQLVLRVEETGPKTILQILG” the figure was 0.101; with “HMKPGTIVTGVVVDIKSDVVVVNAGLKSEGIVPIEQFRNDRGELEVAIGDEVKVALDSLENGFGETVLSRE”, 0.0252.
In the case of “HMVAQEVPYSTFVMRLDRNEVDAVKIIDGNEIEGTFKSPNGDLVQFKTLIPYQDTELMPLLKQKGVRISGS”, the “soluble fraction (log2)” value came to 0.386.
With “HMSKPLEVFKLTSEPFGFSFNTALGRSYTVEATGDLGVWKAVELFQGSGGEIRFTAKPTSSGGAQFFRVFV” the figure was -0.0927; with “HMKPVTNHTVKFYVDDVLWKTVTVKHGGNVRLADLPMSDGKTFVGWSESVVNVTKDLTVFALFS”, -0.562; with “HMEKEEELNSIRPDLDGNDIMEILGVPAGPKVGKAYNYLLNVRLDEGPLSRAEAISRLEAWWENQ”, -0.368.
Turning to “HMGIVAGGTQSIATLRAIDTTDAQLYPDKILINVEDAGLYRLDRQSTATDDGNQVIKPTVGVGRWLKMTS”, the “soluble fraction (log2)” value was -0.11.
Under “HMHSQVFTDPDKAKNAVVKLGAPLVVKADGLALGKGVIIAQNPQAAKEAVASVGSSGISSISVT” stands 0.0607; under “HMGWVMLVIMSRGASEAQINAVVEKIRAAGLTEHLSKGIERTIIGAIGEERKLEPEVFELLPGVEQALHIV”, -0.342; under “HMQVEYTRGELLQDLKEENVLYATITPSRETPTGEVDFVFKDKSIKTLYVTDVSEIEGLLMDYGIDPEVKK”, -0.0511.
As to “HMTQTAVFSKGEQEYYFPLSKVLFFETDGNTINVHTADDIYETRYRLYELEEMLPGSFMRISKSAVVNTNR”, the “soluble fraction (log2)” value is -0.0904.
Under “HMQYDESSQLGERFLNQALNALKADPDKVGDAQWEKLLKENSAKSRQEVLADIGLGKQLAIVIARELLS” stands -0.115; under “HMETLKEMDSKGAINASEVNVREGAGTSSSKMYSLSKGASVDVTGIKGDWYRVHTSKGTGYVLAKYVTLVS”, -0.0779.
With “HMVRGNLAEELLKLREEEGISFQEAGARSGIARSTISQVVNQGLRLKPNQEESLWRVIEEVRGVKER” the figure was 0.046; with “HMQISDSGELEKIVLQVIEENPKPAEQVRSGNEKAIGALVGGVMKATQGRADGGEVNRLLRQHLGL”, 0.172; with “HMFLPETEVKSFFHRGITKISPSLAMDIADFFRMPFAVILKRALALEVISDEQYRSFMTVKPEHV”, -0.014.
Regarding “HMDMTPEEFLAWARHKPFGDPFPKTQTVTFLVPLLGVSRTNIFTWISGKVNPSKTSLLLMEALKRENR”, the “soluble fraction (log2)” value is -0.289.
Consider “HMIVVTSPQVTDERIAEIVAFIEKHGVQAHVSRGTDRTVIGIIGKADPVLAEHLRSMQGVENVIKIS”, for which the “soluble fraction (log2)” value is -0.0652.
With “HMHDYYDSIDAVTHDKSYESNLVFALKLGYTETQLQKALLKLGKKAREDQILEELIRIQKSSKA” the figure was 0.114; with “HMQLEPLVTSVIPVNFAKASDISGTIKGKEVGLLSERGNITAENRTNVLIVKDIRKSVDEINAMVKRLD”, -0.0183.
Under “HMVYNGYYAKSFNGYVVILNGDEKTVYEYTQIPIHLLPEDIRSSVMSGYYLENETDLYNFLENYS” stands -0.822; under “HMVLIQNEDVKDISNYPLLSSVPVFDVFNNKMIIPTFNKDSFNPLIYNFNFNSKRRLIYRVDNTNYLIVIK”, 0.0177; under “HMDKNLQYADTPKGKLREYIKNLPNGSTVNRQKLAEEFGIKKQSMGTVTEVFQEFPDKNFKFVNP”, 0.119.
Under “HMEHIDVSGRAFDVSVSRLKRARRLTMRIDTHKQLVKISAPLHVESSTIRAFLARNQNWLEQQVEKR” stands -0.881; under “HMSEHLTLVVSDEDAGHRVDQFLVSRLAHMTRSQIQKLIKDGQVTIDTKLVRASTTVHTDNIVTIEFPPAV”, -0.505.
As for “HMESTLNYSQFLSLVNEDRVAEVVIQGKELYVTDVNRSRFKVYAPPDPELIGLLRQKRVIISAKP”, the “soluble fraction (log2)” value is -0.0196.
Under “HMSNVIYFNYNDYKFLFMGDAGVDKETDILEKYTLSNIDFLKVGHHGSDTSSNKGFIDSIQPKYSLIS” stands -1.07; under “HMATIIGSIGIVTQKVGLTGVPGRVYVNNESWAAISANGKEIENDTQVIVVKIDGATLIIEKKG”, -1.47.
With “HMDVIDDAQAMEIALEDAGLSMDDLDRYELELHTKRSELVYSIELKSGTEEYEYDLRAADGTILKRDTDF” the figure was -0.168.
For “HMNYTALLNNFSENMKKRRVELSLSQKELASIVGVSVRTIQNYENKKTIPTSAVMESISIALDMGLEKMID”, the “soluble fraction (log2)” value is -1.27.
Under “HMDFSERLARAMSLAGYTQGRLAKEVGMAQSSVNKLLNGANGSRKTVEIASVLGVRPEWLSTGAGEML” stands -0.371; under “HMVPVVGTTIPHEFIGKFGSARVMLKPAVEGSGVIAGGSARAVLELAGYKDIKTKVLGTNNPRNVVYATMN”, 0.0414.
Consider “HMPPTSADGIEKYLASGMIRGVGPVYAKKLVSAFGDKVFDIIEAAPHQLQEVEGIGRVRAASILAAWAEQ”, for which the “soluble fraction (log2)” value stood at 0.134.
With “HMKADIEQVQRAFDTLDPKNQQLVLDAMKAATAELDPNSDQFKTNTEFINDNQKALDRHAKAS” the figure was 0.125; with “HMTKQRSAIMNLLAERNTPLTAEEIGEAIAPSYPKLALSTVYRNLELFTNAGLLEKSFFQDGITRYSLTK”, -0.429.
